The chains are these.
B1: CLCN6 (parent)
chain: FQSISLRKIQFNFPYFRSDRDKRD
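Also: lentivirally expressed fusions sorted by FACS into six bins by GFP to DsRed ratio, PSI derived from sequencing read proportions per bin multiplied by bin number.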

In the series the parent is B1. Put plainly: protein stability index of a GFP-peptide fusion (GPS, HEK-293T) (PSI 1-6); higher = more stable. Conditions: c terminus: a fixed tail appended.
For the variant FQSISLPKIQFNFPYFRSDRDKRD [R7P], the protein stability index amounted to 3.68.
In the case of FQSISLNKIQFNFPYFRSDRDKRD [R7N] it was 1.97.
FQSISLLKIQFNFPYFRSDRDKRD [R7L]: the protein stability index was 1.37.
As to FQSISLAKIQFNFPYFRSDRDKRD [R7A], the protein stability index came to 2.38.
Take FQSISLSKIQFNFPYFRSDRDKRD [R7S]: the protein stability index was 2.4.
Take FQSISLVKIQFNFPYFRSDRDKRD [R7V]: the protein stability index amounted to 2.97.
As for FQWISLRKIQFNFPYFRSDRDKRD [S3W], the protein stability index turned out to be 2.4.
Regarding FQFISLRKIQFNFPYFRSDRDKRD [S3F], the protein stability index stood at 2.58.
The figure for FQTISLRKIQFNFPYFRSDRDKRD [S3T] is 1.79; for FQIISLRKIQFNFPYFRSDRDKRD [S3I] it is 1.74; for FQHISLRKIQFNFPYFRSDRDKRD [S3H] it is 1.46.
For the variant FQSISLRKIDFNFPYFRSDRDKRD [Q10D], the protein stability index is 2.04.
The figure for FQSISLRKIHFNFPYFRSDRDKRD [Q10H] is 1.51; for FQSISLRKIIFNFPYFRSDRDKRD [Q10I] it is 2.33.
Consider FQSISLRKISFNFPYFRSDRDKRD [Q10S], for which the protein stability index turned out to be 1.98.
FTSISLRKIQFNFPYFRSDRDKRD [Q2T]: the protein stability index amounted to 2.73.
On to FSSISLRKIQFNFPYFRSDRDKRD [Q2S], for which the protein stability index worked out at 1.96.
Regarding FKSISLRKIQFNFPYFRSDRDKRD [Q2K], the protein stability index is 2.5.
Turning to FDSISLRKIQFNFPYFRSDRDKRD [Q2D], the protein stability index turned out to be 2.46.
Regarding FVSISLRKIQFNFPYFRSDRDKRD [Q2V], the protein stability index turned out to be 5.36.
For the variant FISISLRKIQFNFPYFRSDRDKRD [Q2I], the protein stability index is 1.06.
Consider FCSISLRKIQFNFPYFRSDRDKRD [Q2C], for which the protein stability index amounted to 1.9.
Consider FRSISLRKIQFNFPYFRSDRDKRD [Q2R], for which the protein stability index was determined as 1.91.
For the variant FFSISLRKIQFNFPYFRSDRDKRD [Q2F], the protein stability index came out at 1.53.
Regarding FQSISLRKIQFRFPYFRSDRDKRD [N12R], the protein stability index is 2.59.
With FQSISLRKIQFEFPYFRSDRDKRD [N12E], the protein stability index amounted to 1.5.
On to FQSISLRKIQFTFPYFRSDRDKRD [N12T], for which the protein stability index came out at 2.37.
On to FQSISLRKIQFVFPYFRSDRDKRD [N12V], for which the protein stability index amounted to 1.9.
On to FQSISLRKIQFMFPYFRSDRDKRD [N12M], for which the protein stability index is 1.54.
The figure for FQSISLRKIQFNAPYFRSDRDKRD [F13A] is 1.84.
In the case of FQSISLRKIQFNIPYFRSDRDKRD [F13I], the protein stability index is 1.35.
Regarding FQSISLRKIQFNEPYFRSDRDKRD [F13E], the protein stability index worked out at 3.21.
As to FQSISLRKIQFNKPYFRSDRDKRD [F13K], the protein stability index worked out at 1.8.
As to FQSISLRKIQFNSPYFRSDRDKRD [F13S], the protein stability index is 1.59.
Turning to FQSISLRKIQFNMPYFRSDRDKRD [F13M], the protein stability index was determined as 2.29.
The figure for FQSISLRKIQFNFPYFRSDRDKRR [D24R] is 1.94; for FQSISLRKIQFNFPYFRSDRDKRT [D24T] it is 2.21.
As for FQSISLRKIQFNFPYFRSDRDKRL [D24L], the protein stability index amounted to 2.
The figure for FQSISLRKIQFNFPYFRSDRDKRE [D24E] is 1.93; for FQSISLRKIQFNFPYFRSDRDKRI [D24I] it is 2.59.
In the case of FQSISLRKIQFNFPYFRSDRDKRP [D24P], the protein stability index is 2.
The figure for FQSISLRKIQFNFPYFRSDRDKRK [D24K] is 1.37; for FQSISLRKIQFNFPYFRSDRDKRN [D24N] it is 1.49.
Consider FQSISLRKIQFNFPYFRSDLDKRD [R20L], for which the protein stability index turned out to be 1.22.
In the case of FQSISLRKIQFNFPYFRSDQDKRD [R20Q] it was 3.07; in that of FQSISLRKIQFNFPYFRSDTDKRD [R20T], 1.25.
Regarding FQSISLRKIQFNFPYFRSDCDKRD [R20C], the protein stability index amounted to 1.23.
For the variant FQSISLRKIQFNFPYFRSDSDKRD [R20S], the protein stability index amounted to 2.2.
FQSISLRKIQFNFPYFRSDHDKRD [R20H]: the protein stability index came out at 1.72.
With FQSISLRKIQFNFPYFRSDKDKRD [R20K], the protein stability index is 1.43.
As to FQSISLRKIQFNFPYFRADRDKRD [S18A], the protein stability index turned out to be 1.99.
In the case of FQSISLRKIQFNFPYFRYDRDKRD [S18Y] it was 2.35; in that of FQSISLRKIQFNFPYFRRDRDKRD [S18R], 2.16.
With FQSISLRKIQFNFPYFRQDRDKRD [S18Q], the protein stability index was found to be 1.52.
On to FQSISLRKIQFNFPYFRDDRDKRD [S18D], for which the protein stability index was 1.71.
In the case of FQSISLRKIQFNFPYFRMDRDKRD [S18M], the protein stability index was found to be 1.38.
Regarding FQSISLRKIQFNFPYFRSDRPKRD [D21P], the protein stability index was 2.61.
With FQSISLRKIQFNFPYFRSDRMKRD [D21M], the protein stability index is 2.08.
As to FQSISLRKIQFNFPYFRSDRGKRD [D21G], the protein stability index was 1.27.
The figure for FQSISLRKIQFNFPYFRSDRFKRD [D21F] is 3.21; for FQSISLRKIQFNFPYFRSDRKKRD [D21K] it is 1.31.
In the case of FQSISLRKIQFNFPYFRSDREKRD [D21E], the protein stability index amounted to 1.1.
For FQSISLRKIQFNFPYNRSDRDKRD [F16N], the protein stability index turned out to be 2.68.
For the variant FQSISLRKIQFNFPYLRSDRDKRD [F16L], the protein stability index came out at 1.44.
Take FQSISLRKIQFNFPYHRSDRDKRD [F16H]: the protein stability index was determined as 2.3.
With FQSISLRKIQFNFPYPRSDRDKRD [F16P], the protein stability index amounted to 1.47.
Consider FQSISLRKIQFNFPYARSDRDKRD [F16A], for which the protein stability index amounted to 1.68.
Regarding FQSISLRKIQFNFPYSRSDRDKRD [F16S], the protein stability index is 1.83.
For the variant EQSISLRKIQFNFPYFRSDRDKRD [F1E], the protein stability index amounted to 4.
The figure for RQSISLRKIQFNFPYFRSDRDKRD [F1R] is 2.07; for IQSISLRKIQFNFPYFRSDRDKRD [F1I] it is 2.16.
For the variant CQSISLRKIQFNFPYFRSDRDKRD [F1C], the protein stability index was found to be 2.4.
The figure for KQSISLRKIQFNFPYFRSDRDKRD [F1K] is 3.31; for GQSISLRKIQFNFPYFRSDRDKRD [F1G] it is 2.16.
In the case of TQSISLRKIQFNFPYFRSDRDKRD [F1T] it was 2.77; in that of FQSISLRKIQFNFPYFRSSRDKRD [D19S], 1.33; in that of FQSISLRKIQFNFPYFRSTRDKRD [D19T], 2.21.
In the case of FQSISLRKIQFNFPYFRSFRDKRD [D19F] it was 1.68; in that of FQSISLRKIQFNFPYFRSKRDKRD [D19K], 1.46.
On to FQSISARKIQFNFPYFRSDRDKRD [L6A], for which the protein stability index was found to be 2.68.
FQSISQRKIQFNFPYFRSDRDKRD [L6Q]: the protein stability index was 2.13.
Regarding FQSISCRKIQFNFPYFRSDRDKRD [L6C], the protein stability index stood at 1.53.
The figure for FQSISTRKIQFNFPYFRSDRDKRD [L6T] is 2.59; for FQSISLRKIQFNFEYFRSDRDKRD [P14E] it is 1.99.
The figure for FQSISLRKIQFNFNYFRSDRDKRD [P14N] is 1.81; for FQSISLRKIQFNFQYFRSDRDKRD [P14Q] it is 2.5.
In the case of FQSISLRKIQFNFFYFRSDRDKRD [P14F] it was 1.69; in that of FQSESLRKIQFNFPYFRSDRDKRD [I4E], 1.91.
With FQSNSLRKIQFNFPYFRSDRDKRD [I4N], the protein stability index amounted to 1.98.
In the case of FQSVSLRKIQFNFPYFRSDRDKRD [I4V], the protein stability index is 1.98.
With FQSDSLRKIQFNFPYFRSDRDKRD [I4D], the protein stability index was 2.05.
With FQSISLRKIQFNFPYFYSDRDKRD [R17Y], the protein stability index was found to be 1.22.
For FQSISLRKIQFNFPYFDSDRDKRD [R17D], the protein stability index came to 3.03.
On to FQSISLRKIQFNFPYFQSDRDKRD [R17Q], for which the protein stability index turned out to be 2.02.

The record behind these values is the supplement of paper PMC10567573.
